In this data set the target is human alpha-thrombin (Homo sapiens, UniProt P00734;P00734 328-363;364-622). Kind of data set: competition.

The text below walks through data of PMC2885824.

On to GGTTGGTGTGGTTGG (structured_DNA) [15nt anti-thrombin DNA aptamer], for which the binding result is reported as “binds”.
